The source of these data is paper PMC10107491, “Phosphorylation of S11 in PHR1 negatively controls its transcriptional activity”.

This series has as its target PHR1 S11A-His (UniProt Q94CL7 1-409, S11A). As to the kind of experiment: EMSA; without SnRK1; 10 mM Tris-HCl pH 8.0, 100 mM NaCl, 10% glycerol, 2 mM DTT, 0.05% NP-40; 0.5 ug protein in 30 ul, 22 C, 30 min; 4.5% acrylamide gel, 0.5x TBE. The settings on record: protein: recombinant; tags: His (pET28b(+)); chain copies: 2; label: 32P 5' end label on sense strand (T4 PNK); blunt.

Sequence of PHR1 S11A-His (Q94CL7 whole entry S11A): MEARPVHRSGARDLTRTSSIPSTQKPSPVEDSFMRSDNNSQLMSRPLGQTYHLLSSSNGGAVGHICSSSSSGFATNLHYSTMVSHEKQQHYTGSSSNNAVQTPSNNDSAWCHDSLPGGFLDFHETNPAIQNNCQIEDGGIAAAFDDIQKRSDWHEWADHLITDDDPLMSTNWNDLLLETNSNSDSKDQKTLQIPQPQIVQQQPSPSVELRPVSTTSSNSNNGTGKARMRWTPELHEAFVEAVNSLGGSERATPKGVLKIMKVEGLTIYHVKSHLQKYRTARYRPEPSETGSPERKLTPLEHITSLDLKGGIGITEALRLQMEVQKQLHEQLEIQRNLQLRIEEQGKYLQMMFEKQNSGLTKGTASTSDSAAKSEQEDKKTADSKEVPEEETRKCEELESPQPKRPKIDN

B1: AtIPS1 P1BS probe (dsDNA)
DNA 1: CAATTTTGGTAACGGCATATTCCATCGGATGATCCAAAATTCTCAAAA
DNA 2: TTTTGAGAATTTTGGATCATCCGATGGAATATGCCGTTACCAAAATTG
In the case of B1, the binding result is reported as “binds”.
